B1: PIH1 domain-containing protein 2 (Homo sapiens), Q8WWB5 (parent)
chain: METSSKGLLTQVTQFWNLLDDLAQSDPEGYEKFIQQQLKEGKQLCAAPEPQLCLQTRILKPKEKILFINLCQWTRIPAPQSTTHPVPLTVGKPEDTTEISDAYTVIDVAYNPDVLHAAEKDQVKKNQLIQMAMKCIEEKFQFTLSHSYHITKFRIKGSIQRMKQNLMGIQTDSIDLREKMRRELTLGQIRSSTMSNPDHFPQLLLPKDQVSGKAVCLIEEISSTEIQVEMKMPAYELKIVHDHSEKPLKIELKVELPGINSVSLCDLSVSEDDLLIEVSEKYRLHLNLPKLIDTEMTTAKFIKEKSTLIITMPLV
B2: WASH complex subunit 3 (Homo sapiens), Q9Y3C0 (parent)
chain: MDEDGLPLMGSGIDLTKVPAIQQKRTVAFLNQFVVHTVQFLNRFSTVCEEKLADLSLRIQQIETTLNILDAKLSSIPGLDDVTVEVSPLNVTSVTNGAHPEATSEQPQQNSTQDSGLQESEVSAENILTVAKDPRYARYLKMVQVGVPVMAIRNKMISEGLDPDLLERPDAPVPDGESEKTVEESSDSESSFSD
partner: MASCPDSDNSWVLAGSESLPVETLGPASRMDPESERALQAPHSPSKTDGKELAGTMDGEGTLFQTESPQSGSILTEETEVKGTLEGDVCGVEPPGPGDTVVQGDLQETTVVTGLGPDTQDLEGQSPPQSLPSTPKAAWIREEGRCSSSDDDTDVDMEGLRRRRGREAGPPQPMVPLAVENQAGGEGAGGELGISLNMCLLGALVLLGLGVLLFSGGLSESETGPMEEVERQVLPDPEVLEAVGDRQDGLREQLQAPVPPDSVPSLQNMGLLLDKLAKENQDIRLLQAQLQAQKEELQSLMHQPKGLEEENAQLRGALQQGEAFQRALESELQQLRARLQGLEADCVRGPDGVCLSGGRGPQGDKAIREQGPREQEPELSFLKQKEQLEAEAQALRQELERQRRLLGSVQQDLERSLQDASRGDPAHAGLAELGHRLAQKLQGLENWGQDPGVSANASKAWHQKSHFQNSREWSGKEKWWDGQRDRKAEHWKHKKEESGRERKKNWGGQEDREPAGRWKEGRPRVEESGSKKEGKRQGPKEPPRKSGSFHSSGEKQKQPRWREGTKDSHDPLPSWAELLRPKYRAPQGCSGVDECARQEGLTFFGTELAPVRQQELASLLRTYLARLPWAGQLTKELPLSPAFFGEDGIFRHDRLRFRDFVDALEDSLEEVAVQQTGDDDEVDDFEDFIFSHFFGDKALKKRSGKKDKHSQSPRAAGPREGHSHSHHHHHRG
B3: Inactive peptidyl-prolyl cis-trans isomerase FKBP6 (Homo sapiens), O75344 (parent)
chain: MGGSALNQGVLEGDDAPGQSLYERLSQRMLDISGDRGVLKDVIREGAGDLVAPDASVLVKYSGYLEHMDRPFDSNYFRKTPRLMKLGEDITLWGMELGLLSMRRGELARFLFKPNYAYGTLGCPPLIPPNTTVLFEIELLDFLDCAESDKFCALSAEQQDQFPLQKVLKVAATEREFGNYLFRQNRFYDAKVRYKRALLLLRRRSAPPEEQHLVEAAKLPVLLNLSFTYLKLDRPTIALCYGEQALIIDQKNAKALFRCGQACLLLTEYQKARDFLVRAQKEQPFNHDINNELKKLASCYRDYVDKEKEMWHRMFAPCGDGSTAGES
partner: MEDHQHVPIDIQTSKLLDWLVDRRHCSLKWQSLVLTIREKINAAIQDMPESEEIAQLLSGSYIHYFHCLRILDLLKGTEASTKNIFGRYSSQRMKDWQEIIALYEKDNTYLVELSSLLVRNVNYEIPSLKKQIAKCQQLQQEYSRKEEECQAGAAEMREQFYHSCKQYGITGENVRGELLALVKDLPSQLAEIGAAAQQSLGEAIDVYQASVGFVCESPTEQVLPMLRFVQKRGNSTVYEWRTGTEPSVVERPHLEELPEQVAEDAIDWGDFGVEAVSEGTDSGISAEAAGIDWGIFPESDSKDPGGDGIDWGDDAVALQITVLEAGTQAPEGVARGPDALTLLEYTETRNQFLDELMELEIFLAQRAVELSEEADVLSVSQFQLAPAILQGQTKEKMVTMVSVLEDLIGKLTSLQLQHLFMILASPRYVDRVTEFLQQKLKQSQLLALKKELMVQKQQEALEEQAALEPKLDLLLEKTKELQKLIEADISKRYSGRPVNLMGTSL
B4: Calcium-binding and coiled-coil domain-containing protein 2 (Homo sapiens), Q13137 (parent)
chain: MEETIKDPPTSAVLLDHCHFSQVIFNSVEKFYIPGGDVTCHYTFTQHFIPRRKDWIGIFRVGWKTTREYYTFMWVTLPIDLNNKSAKQQEVQFKAYYLPKDDEYYQFCYVDEDGVVRGASIPFQFRPENEEDILVVTTQGEVEEIEQHNKELCKENQELKDSCISLQKQNSDMQAELQKKQEELETLQSINKKLELKVKEQKDYWETELLQLKEQNQKMSSENEKMGIRVDQLQAQLSTQEKEMEKLVQGDQDKTEQLEQLKKENDHLFLSLTEQRKDQKKLEQTVEQMKQNETTAMKKQQELMDENFDLSKRLSENEIICNALQRQKERLEGENDLLKRENSRLLSYMGLDFNSLPYQVPTSDEGGARQNPGLAYGNPYSGIQESSSPSPLSIKKCPICKADDICDHTLEQQQMQPLCFNCPICDKIFPATEKQIFEDHVFCHSL
partner: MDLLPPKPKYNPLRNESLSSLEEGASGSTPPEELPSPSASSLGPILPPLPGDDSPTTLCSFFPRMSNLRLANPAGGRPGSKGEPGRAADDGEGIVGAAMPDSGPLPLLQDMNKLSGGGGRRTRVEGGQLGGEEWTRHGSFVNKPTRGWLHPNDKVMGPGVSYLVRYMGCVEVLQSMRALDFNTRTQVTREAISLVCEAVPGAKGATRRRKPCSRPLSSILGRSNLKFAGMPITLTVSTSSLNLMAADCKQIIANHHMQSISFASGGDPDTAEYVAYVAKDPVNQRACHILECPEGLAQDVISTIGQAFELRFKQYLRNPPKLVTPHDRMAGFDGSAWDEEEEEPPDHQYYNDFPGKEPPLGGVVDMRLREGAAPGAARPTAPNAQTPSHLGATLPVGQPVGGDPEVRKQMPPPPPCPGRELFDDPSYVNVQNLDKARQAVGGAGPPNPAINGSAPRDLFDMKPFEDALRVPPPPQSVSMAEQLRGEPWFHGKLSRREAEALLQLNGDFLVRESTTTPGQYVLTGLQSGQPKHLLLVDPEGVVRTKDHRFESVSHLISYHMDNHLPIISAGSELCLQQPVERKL
B5: Protein phosphatase 1 regulatory inhibitor subunit 16B (Homo sapiens), Q96T49 (parent)
chain: MASHVDLLTELQLLEKVPTLERLRAAQKRRAQQLKKWAQYEQDLQHRKRKHERKRSTGGRRKKVSFEASVALLEASLRNDAEEVRYFLKNKVSPDLCNEDGLTALHQCCIDNFEEIVKLLLSHGANVNAKDNELWTPLHAAATCGHINLVKILVQYGADLLAVNSDGNMPYDLCEDEPTLDVIETCMAYQGITQEKINEMRVAPEQQMIADIHCMIAAGQDLDWIDAQGATLLHIAGANGYLRAAELLLDHGVRVDVKDWDGWEPLHAAAFWGQMQMAELLVSHGASLSARTSMDEMPIDLCEEEEFKVLLLELKHKHDVIMKSQLRHKSSLSRRTSSAGSRGKVVRRASLSDRTNLYRKEYEGEAILWQRSAAEDQRTSTYNGDIRETRTDQENKDPNPRLEKPVLLSEFPTKIPRGELDMPVENGLRAPVSAYQYALANGDVWKVHEVPDYSMAYGNPGVADATPPWSSYKEQSPQTLLELKRQRAAAKLLSHPFLSTHLGSSMARTGESSSEGKAPLIGGRTSPYSSNGTSVYYTVTSGDPPLLKFKAPIEEMEEKVHGCCRIS
partner: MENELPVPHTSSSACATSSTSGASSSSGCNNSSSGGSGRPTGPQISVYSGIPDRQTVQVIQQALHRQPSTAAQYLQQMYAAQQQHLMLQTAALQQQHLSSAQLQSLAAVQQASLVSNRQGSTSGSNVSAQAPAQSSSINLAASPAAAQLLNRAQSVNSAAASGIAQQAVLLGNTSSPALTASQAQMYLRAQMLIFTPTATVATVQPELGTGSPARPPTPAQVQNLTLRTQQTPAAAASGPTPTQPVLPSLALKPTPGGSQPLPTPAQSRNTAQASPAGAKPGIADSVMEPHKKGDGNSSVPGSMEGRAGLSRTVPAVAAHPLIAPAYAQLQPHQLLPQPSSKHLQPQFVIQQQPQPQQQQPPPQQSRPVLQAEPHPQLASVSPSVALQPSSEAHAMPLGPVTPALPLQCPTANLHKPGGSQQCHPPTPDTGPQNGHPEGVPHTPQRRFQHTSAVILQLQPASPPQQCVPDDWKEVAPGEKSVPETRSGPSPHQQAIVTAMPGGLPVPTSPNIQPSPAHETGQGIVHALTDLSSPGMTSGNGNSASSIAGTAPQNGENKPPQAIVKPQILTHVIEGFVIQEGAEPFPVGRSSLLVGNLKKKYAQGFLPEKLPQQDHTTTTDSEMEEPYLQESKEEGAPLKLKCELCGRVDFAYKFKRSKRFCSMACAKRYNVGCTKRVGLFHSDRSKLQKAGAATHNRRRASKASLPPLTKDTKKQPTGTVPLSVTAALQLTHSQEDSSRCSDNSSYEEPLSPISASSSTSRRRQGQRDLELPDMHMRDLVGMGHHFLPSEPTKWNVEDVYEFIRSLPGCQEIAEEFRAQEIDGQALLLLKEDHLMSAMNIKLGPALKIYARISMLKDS
B6: Nebulette (Homo sapiens), O76041 (parent)
chain: MRVPVFEDIKDETEEEKIGEEENEEDQVFYKPVIEDLSMELARKCTELISDIRYKEEFKKSKDKCTFVTDSPMLNHVKNIGAFISEAKYKGTIKADLSNSLYKRMPATIDSVFAGEVTQLQSEVAYKQKHDAAKGFSDYAHMKEPPEVKHAMEVNKHQSNISYRKDVQDTHTYSAELDRPDIKMATQISKIISNAEYKKGQGIMNKEPAVIGRPDFEHAVEASKLSSQIKYKEKFDNEMKDKKHHYNPLESASFRQNQLAATLASNVKYKKDIQNMHDPVSDLPNLLFLDHVLKASKMLSGREYKKLFEENKGMYHFDADAVEHLHHKGNAVLQSQVKYKEEYEKNKGKPMLEFVETPSYQASKEAQKMQSEKVYKEDFEKEIKGRSSLDLDKTPEFLHVKYITNLLREKEYKKDLENEIKGKGMELNSEVLDIQRAKRASEMASEKEYKKDLESIIKGKGMQAGTDTLEMQHAKKAAEIASEKDYKRDLETEIKGKGMQVSTDTLDVQRAKKASEMASQKQYKKDLENEIKGKGMQVSMDIPDILRAKRTSEIYSQRKYKDEAEKMLSNYSTIADTPEIQRIKTTQQNISAVFYKKEVGAGTAVKDSPEIERVKKNQQNISSVKYKEEIKHATAISDPPELKRVKENQKNISNLQYKEQNYKATPVSMTPEIERVRRNQEQLSAVKYKGELQRGTAISDPPELKRAKENQKNISNVYYRGQLGRATTLSVTPEMERVKKNQENISSVKYTQDHKQMKGRPSLILDTPAMRHVKEAQNHISMVKYHEDFEKTKGRGFTPVVDDPVTERVRKNTQVVSDAAYKGVHPHIVEMDRRPGIIVDLKVWRTDPGSIFDLDPLEDNIQSRSLHMLSEKASHYRRHWSRSHSSSTFGTGLGDDRSEISEIYPSFSCCSEVTRPSDEGAPVLPGAYQQSHSQGYGYMHQTSVSSMRSMQHSPNLRTYRAMYDYSAQDEDEVSFRDGDYIVNVQPIDDGWMYGTVQRTGRTGMLPANYIEFVN
partner: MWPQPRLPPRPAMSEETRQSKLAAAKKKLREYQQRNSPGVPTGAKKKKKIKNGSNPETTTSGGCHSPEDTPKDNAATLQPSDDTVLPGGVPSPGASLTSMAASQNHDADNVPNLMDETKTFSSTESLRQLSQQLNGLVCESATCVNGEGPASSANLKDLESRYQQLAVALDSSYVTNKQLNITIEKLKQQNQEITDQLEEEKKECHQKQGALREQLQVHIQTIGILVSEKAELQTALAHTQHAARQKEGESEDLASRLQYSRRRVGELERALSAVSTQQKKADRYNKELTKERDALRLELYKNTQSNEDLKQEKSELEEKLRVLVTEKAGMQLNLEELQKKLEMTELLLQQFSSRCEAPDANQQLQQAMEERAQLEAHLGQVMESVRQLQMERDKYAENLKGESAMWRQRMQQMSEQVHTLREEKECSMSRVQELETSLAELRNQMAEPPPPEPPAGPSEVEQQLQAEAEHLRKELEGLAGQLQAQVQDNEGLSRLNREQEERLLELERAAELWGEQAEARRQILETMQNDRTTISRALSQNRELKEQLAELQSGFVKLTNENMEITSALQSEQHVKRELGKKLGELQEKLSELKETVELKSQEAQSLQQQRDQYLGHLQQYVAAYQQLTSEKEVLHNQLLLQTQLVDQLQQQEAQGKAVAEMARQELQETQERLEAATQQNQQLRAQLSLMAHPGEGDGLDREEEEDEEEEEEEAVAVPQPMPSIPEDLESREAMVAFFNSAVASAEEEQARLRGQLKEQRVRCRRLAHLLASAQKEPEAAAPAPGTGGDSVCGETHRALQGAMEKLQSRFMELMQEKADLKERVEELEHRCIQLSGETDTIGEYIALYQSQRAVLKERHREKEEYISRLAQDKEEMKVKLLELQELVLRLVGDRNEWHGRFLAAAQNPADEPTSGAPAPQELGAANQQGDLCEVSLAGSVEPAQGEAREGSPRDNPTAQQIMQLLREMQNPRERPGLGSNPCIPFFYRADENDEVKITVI

Variants of: B1
Details: with cenpr_human ITGB3BP

Row | Variant | effect of a mutation on the interaction
1 | A117V | with no effect

Variants of: B1
Details: with if2b3_human IGF2BP3, O00425
if2b3_human IGF2BP3, O00425, sequence (O00425 whole entry): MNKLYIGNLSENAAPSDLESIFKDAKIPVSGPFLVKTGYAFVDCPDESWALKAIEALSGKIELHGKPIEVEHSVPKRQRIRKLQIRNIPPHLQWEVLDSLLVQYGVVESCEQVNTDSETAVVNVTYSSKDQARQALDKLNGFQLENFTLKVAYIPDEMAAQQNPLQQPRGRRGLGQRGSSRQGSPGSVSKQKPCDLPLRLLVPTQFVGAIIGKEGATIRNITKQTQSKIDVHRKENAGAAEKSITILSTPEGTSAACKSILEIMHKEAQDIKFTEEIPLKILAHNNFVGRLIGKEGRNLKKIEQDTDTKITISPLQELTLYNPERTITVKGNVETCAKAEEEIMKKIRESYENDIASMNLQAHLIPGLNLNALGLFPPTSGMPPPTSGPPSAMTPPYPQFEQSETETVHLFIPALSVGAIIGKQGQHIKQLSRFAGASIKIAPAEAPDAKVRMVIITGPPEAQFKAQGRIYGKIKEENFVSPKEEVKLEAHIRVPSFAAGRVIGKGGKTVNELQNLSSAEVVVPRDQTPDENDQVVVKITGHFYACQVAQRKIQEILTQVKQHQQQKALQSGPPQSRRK

Row | Variant | effect of a mutation on the interaction
2 | A117V | with no effect

Variants of: B1
Details: with if4a2_human EIF4A2, Q14240
if4a2_human EIF4A2, Q14240, sequence (Q14240 whole entry): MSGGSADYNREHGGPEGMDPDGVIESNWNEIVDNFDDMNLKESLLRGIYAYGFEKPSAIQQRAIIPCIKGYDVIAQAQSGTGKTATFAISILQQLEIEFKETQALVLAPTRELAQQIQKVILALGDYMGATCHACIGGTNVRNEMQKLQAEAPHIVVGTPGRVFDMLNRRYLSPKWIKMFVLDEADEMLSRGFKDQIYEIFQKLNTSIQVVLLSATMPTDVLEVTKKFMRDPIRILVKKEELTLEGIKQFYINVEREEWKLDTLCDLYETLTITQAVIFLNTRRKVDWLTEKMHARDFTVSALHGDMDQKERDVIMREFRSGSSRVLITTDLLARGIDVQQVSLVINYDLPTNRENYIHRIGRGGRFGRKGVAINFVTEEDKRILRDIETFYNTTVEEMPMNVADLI

Row | Variant | effect of a mutation on the interaction
3 | A117V | with no effect

Variants of: B1
Details: with gfap_human GFAP

Row | Variant | effect of a mutation on the interaction
4 | A117V | disrupting interaction strength

Variants of: B2
Details: with pbip1_human PBXIP1, Q96AQ6

Row | Variant | effect of a mutation on the interaction
5 | F44L | with no effect

Variants of: B3
Details: with ck5p3_human CDK5RAP3, Q96JB5

Row | Variant | effect of a mutation on the interaction
6 | H287N | with no effect
7 | R175Q | with no effect

Variants of: B4
Details: with shc1_human SHC1, P29353

Row | Variant | effect of a mutation on the interaction
8 | E222K | with no effect

Variants of: B5
Details: with phc2_human PHC2, Q8IXK0

Row | Variant | effect of a mutation on the interaction
9 | P519S | with no effect

Variants of: B6
Details: with goga2_human GOLGA2, Q08379

Row | Variant | effect of a mutation on the interaction
10 | M351V | with no effect
11 | R613Q | with no effect

Source: IntAct's records for PubMed 31515488
